One molecule from article PMC7395135, “Structures of the human mitochondrial ribosome bound to EF-G1 reveal distinct features of mitochondrial translation elongation” (Nature Communications, 2020) can be followed below.

In the experiment the target is mitoribosomal protein uL12m (human (endogenous in HEK293S GnTI), UniProt P52815 37-198). As to the kind of experiment: cryo-EM structure; 150 nM 55S mitoribosomes incubated with 5 uM EF-G1mt and 1 mM GMPPCP at 37 °C for 5 min in HEPES polymix buffer; three classes (I, II, III) from one sample. The note with it: both partners purified.

B1: human mitochondrial elongation factor G1 (natural protein)
chain: not shown
notes: also called EF-G1mt; source: E. coli BL21(DE3) (RIL), purified (Ni-NTA, cation exchange TSKgel SP-5PW)
Take B1: the binding result is on record as “binds”.
